Measurements as given in patent US20240002497A1 (Merck Sharp & Dohme, published 2024).

Experiments:
huNav1.7α+β1 = molecular target: T1, huNav1.7α+β1 (human, UniProt Q15858 1-1988; Q07699 19-218); experiment: binding FACS, HEKa/β1 cells
T1 construct: also called huNav1.7-beta1; HEKa/β1
Method: Binding of the ISVDs to cell-expressed Nav1.7α was detected via murine anti-Flag (Sigma, catalog #F1804). Briefly, cells were resuspended in FACS buffer (PBS, 10% FBS, NaN₃) and transferred to a 96-well V-bottom plate at 1×10^5 cells/well. Purified FLAG3-tagged ISVD was diluted in FACS buffer and added to the cells for 30 minutes at 4° C. […] Prior to the read-out, the samples were resuspended in 1 μg/mL propidium iodide (Sigma, catalog #P4170) to exclude dead cells. Between each step, the cells were centrifuged for 5 minutes at 200 grams and washed with 100 μL/well FACS buffer.

[1] = molecular target: T2, huNav1.7α + β1-β2-β3 (human Nav1.7α co-expressed with human Navβ1, Navβ2 and Navβ3 on cells) (human); experiment: binding FACS, CHO FlpIn cells
T2 construct: also called huNav1.7-beta1-beta2-beta3; CHO FlpIn huNav1.7α + β1-β2-β3
Procedure, shortened: (§1)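 Cells in FACS buffer (PBS, 10% FBS, NaN₃) were incubated with purified FLAG3-tagged ISVD for 30 minutes at 4° C. Bound ISVD was detected by flow cytometry with murine anti-Flag, and dead cells were excluded with 1 μg/mL propidium iodide.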

[2] = molecular target: T3, rhNav1.7α + β1-β2-β3 (rhesus Nav1.7α co-expressed with Navβ1, Navβ2 and Navβ3 on cells) (rhesus monkey (α subunit); β subunits …); experiment: binding FACS, CHO FlpIn cells
T3 construct: also called rhNav1.7-beta1-beta2-beta3; CHO FlpIn rhNav1.7α + β1-β2-β3
Procedure, shortened: as §1

B1: F010301055 (VHH)
VHH: EVQLVESGGGLVQPGGSLRLSCAASGMLFNANTQGWYRQAPGKQRELVAFIFWGGYVNYVDSVKGRFTISRDNAKRTMYLQMNSLKPEDSAIYYCSLSRYLGQGTLVTVSS
notes: vs F0103265A11: S53W, T57V
- Bmax relative to '535 (huNav1.7α+β1): 117%
- EC50 (huNav1.7α+β1): 0.0044 µM

B2: F010301059 (VHH)
VHH: EVQLVESGGGLVQPGGSLRLSCAASGMLFNANTQGWYRQAPGKQRELVAFIFSGGYVNYNDSVKGRFTISRDNAKRTMYLQMNSLKPEDSAIYYCALSRYQGQGTLVTVSS
notes: vs F0103265A11: T57V, V60N, S93A, L103Q
- Bmax relative to '535 (huNav1.7α+β1): 99%
- EC50 (huNav1.7α+β1): 0.0054 µM

B3: F010301099 (VHH)
VHH: EVQLVESGGGLVQPGGSLRLSCAASGMLFNANTQGWYRQAPGKQRELVAFIFSGGWVTYVDSVKGRFTISRDNAKRTMYLQMNSLKPEDSAIYYCSLSRYLGQGTLVTVSS
notes: vs F0103265A11: Y56W, T57V, N58T
- Bmax relative to '535 (huNav1.7α+β1): 87%
- EC50 (huNav1.7α+β1): 0.0074 µM

B4: F010301111 (VHH)
VHH: EVQLVESGGGLVQPGGSLRLSCAASGMLFNANTQGWYRQAPGKQRELVAFIFSGGYVNYNDSVKGRFTISRDNAKRTMYLQMNSLKPEDSAIYYCALSRYLGQGTLVTVSS
notes: vs F0103265A11: T57V, V60N, S93A
- Bmax relative to '535 (huNav1.7α+β1): 99%
- EC50 (huNav1.7α+β1): 0.0054 µM

B5: F010301113 (VHH)
VHH: EVQLVESGGGLVQPGGSLRLSCAASGMLFNRNTQGWYRQAPGKQRELVAFIFSGGYTNYNDSVKGRFTISRDNAKRTMYLQMNSLKPEDSAIYYCSLSVYQGQGTLVTVSS
notes: vs F0103265A11: A31R, V60N, R101V, L103Q
- Bmax relative to '535 (huNav1.7α+β1): 111%
- EC50 (huNav1.7α+β1): 0.0057 µM

B6: F010301126 (VHH)
VHH: EVQLVESGGGLVQPGGSLRLSCAASGMLFNRNTQGWYRQAPGKQRELVAFIFSGGYVTYNDSVKGRFTISRDNAKRTMYLQMNSLKPEDSAIYYCSLSRYLGQGTLVTVSS
notes: vs F0103265A11: A31R, T57V, N58T, V60N
- Bmax relative to '535 (huNav1.7α+β1): 118%
- EC50 (huNav1.7α+β1): 0.0056 µM

B7: F010302313 (VHH)
VHH: EVQLVESGGGVVQPGGSLRLSCAASGPVFNINRMAWYRQAPGKQRELVAYVTPTGDISYADSVKGRFTISRDASKRVYLQMNSLRPEDTALYYCRALLQPDSYSITRTYWGQGTLVTVSS
notes: also called F0103387G04(L11V, A12V, K33R, R39Q, S50Y, S56D, T60A, G73A, W78V, S79Y, T83R, V89L, N93R, N100cI)
- Bmax [1]: 100%
- EC50 [1]: 0.038 µM
- Bmax [2]: 96%
- EC50 [2]: 0.034 µM

B8: F010302314 (VHH)
VHH: EVQLVESGGGVVQPGGSLRLSCAASGPVFNINRMAWYRQAPGKQRELVAYVTPTGDISYADSVKGRFTISRDRSKRVYLQMNSLRPEDTALYYCRALLQPDSYSITRTYWGQGTLVTVSS
notes: also called F0103387G04(L11V, A12V, K33R, R39Q, S50Y, S56D, T60A, G73R, W78V, S79Y, T83R, V89L, N93R, N100cI)
- Bmax [1]: 100%
- EC50 [1]: 0.016 µM
- Bmax [2]: 98%
- EC50 [2]: 0.014 µM

B9: F010302315 (VHH)
VHH: EVQLVESGGGVVQPGGSLRLSCAASGPVFNINRMAWYRQAPGKQRELVAYVTPTGDISYADSVKGRFTISRDGSKRVYLQMNSLRPEDTALYYCRALLQPRSYSITRTYWGQGTLVTVSS
notes: also called F0103387G04(L11V, A12V, K33R, R39Q, S50Y, S56D, T60A, W78V, S79Y, T83R, V89L, N93R, D99R, N100cI)
- Bmax [1]: 100%
- EC50 [1]: 0.0072 µM
- Bmax [2]: 23%
- EC50 [2]: 0.039 µM

B10: F010302317 (VHH)
VHH: EVQLVESGGGVVQPGGSLRLSCAASGPVFNINRMAWYRQAPGKQRELVAYVTPTGDISYADSVKGRFTISRDRSKRVYLQMNSLRPEDTALYYCRALLQPRSYSITRTYWGQGTLVTVSS
notes: also called F0103387G04(L11V, A12V, K33R, R39Q, S50Y, S56D, T60A, G73R, W78V, S79Y, T83R, V89L, N93R, D99R, N100cI)-FLAG3-HIS6
- Bmax [1]: 91%
- EC50 [1]: 0.0068 µM
- Bmax [2]: 13%
- EC50 [2]: 0.019 µM

B11: F010302320 (VHH)
VHH: EVQLVESGGGVVQPGGSLRLSCAASGPVFNINRMAWYRQAPGKQRELVAYVTPTGDISYADSVKGRFTISRDASKRVYLQMNSLRPEDTALYYCRALLQPDSYSNTRTYWGQGTLVTVSS
notes: also called F0103387G04(L11V, A12V, K33R, R39Q, S50Y, S56D, T60A, G73A, W78V, S79Y, T83R, V89L, N93R)
- Bmax [1]: 99%
- EC50 [1]: 0.03 µM
- Bmax [2]: 100%
- EC50 [2]: 0.021 µM

B12: F010302325 (VHH)
VHH: EVQLVESGGGVVQPGGSLRLSCAASGPVFNINRMAWYRQAPGKQRELVAYVTPTGDISYADSVKGRFTISRDRSKRVYLQMNSLRPEDTALYYCRALLQPDSYSNTRTYWGQGTLVTVSS
notes: also called F0103387G04(L11V, A12V, K33R, R39Q, S50Y, S56D, T60A, G73R, W78V, S79Y, T83R, V89L, N93R)
- Bmax [1]: 96%
- EC50 [1]: 0.013 µM
- Bmax [2]: 99%
- EC50 [2]: 0.0087 µM
